This data set in a line: Plasma pharmacokinetics of HHC^MET in Wistar rats (sandwich ELISA). The format is in vivo. To be noted: n = 3. The procedure: This study was performed in order to investigate the plasma pharmacokinetics of HHC^MET in Wistar rats following subcutaneous and intramuscular administration of transient HHC^MET-linker hydrogel prodrug 32 or following subcutaneous or intravenous administration of free HHC^MET. Animals (n=3 per group) received either a single SC injection in the neck region or a single IM injection in the thigh musculature of a formulation of 32 (10 mg/kg HHC^MET equivalents) or a single SC injection in the neck region or IV injection in the tail vein of an HHC^MET formulation (10 mg/kg HHC^MET). At selected time points, 200 μL blood were collected in Li-Heparin tubes and processed to plasma by centrifugation at 3,000 g for 10 minutes at 4° C. HHC^MET concentrations in rat plasma were determined with an in-house developed sandwich ELISA setup. For capturing HHC^MET, a human CTLA-4 (AA Ala37-Ser160)-Fc Tag fusion protein (Supplier AcroBiosystem, Newark, Del.; USA, catalog no. CT4-H5255) was coated to the ELISA plate wells and read-out was performed via a rabbit anti-camelid VHH antibody conjugated with horseradish peroxidase (supplier Genscript, Piscataway, N.J., USA, catalog no. A01861-200).
Calibration standards of HHC^MET in blank plasma were prepared as follows: thawed Li-Heparin Wistar rat plasma was homogenized. The free HHC^MET formulation was spiked into blank plasma at concentrations between 96.0 ng/mL and 3.00 ng/mL with additional higher and lower anchor points. These solutions were used for the generation of a calibration curve. Calibration curves were analyzed via a 4-parameter […] fit and 1/Y weighted. Calibration curves were confirmed via separately prepared quality control standards at 10, 40 and 80 ng/mL.
For orientation: An ELISA detects its analyte on a solid surface through an enzyme-linked reagent.

B1: HHC^MET: custom made protein of SEQ ID NO:1, expressed from E. coli (protein)
chain: EVQLVESGGGLVQAGGSLRLSCAASGGTFSFYGMGWFRQAPGKEQEFVADIRTSAGRTYYADSVKGRFTISRDNAKNTVYLQMNSLKPEDTAVYYCAAEMSGISGWDYWGQGTQVTVSSGGGGSGGGSEVQLVESGGGLVQAGGSLRLSCAASGGTFSFYGMGWFRQAPGKEQEFVADIRTSAGRTYYADSVKGRFTISRDNAKNTVYLQMNSLKPEDTAVYYCAAEMSGISGWDYWGQGTQVTVSS
modifications: nanobody
Take B1: the “mean HHC^MET concentration in plasma” value is 17400 ng/mL (intravenous, 10 mg/kg, 0.25 h); 3530 ng/mL (intravenous, 10 mg/kg, 1 h); 1720 ng/mL (intravenous, 10 mg/kg, 4 h); 8.27 ng/mL (intravenous, 10 mg/kg, 24 h); “<LLOQ” (intravenous, 10 mg/kg, 32 h); “<LLOQ” (intravenous, 10 mg/kg, 48 h). Moreover, the “mean HHC^MET concentration in plasma” value (intravenous, 10 mg/kg, 72 h) worked out at 1.15 ng/mL; the “mean HHC^MET concentration in plasma” value (intravenous, 10 mg/kg, 96 h) is “<LLOQ”; the “mean HHC^MET concentration in plasma” value (intravenous, 10 mg/kg, 168 h) is given as “<LLOQ”; the “mean HHC^MET concentration in plasma” value (subcutaneous, 10 mg/kg HHC^MET (equivalents), 0.25 h) is listed as 2540 ng/mL; the “mean HHC^MET concentration in plasma” value (subcutaneous, 10 mg/kg HHC^MET (equivalents), 1 h) came out at 5090 ng/mL; the “mean HHC^MET concentration in plasma” value (subcutaneous, 10 mg/kg HHC^MET (equivalents), 4 h) is reported as 2280 ng/mL. The “mean HHC^MET concentration in plasma” value is, setting by setting: (subcutaneous, 10 mg/kg HHC^MET (equivalents), 24 h) 2.60 ng/mL; (subcutaneous, 10 mg/kg HHC^MET (equivalents), 32 h) “<LLOQ”; (subcutaneous, 10 mg/kg HHC^MET (equivalents), 48 h) “<LLOQ”; (subcutaneous, 10 mg/kg HHC^MET (equivalents), 72 h) 2.07 ng/mL; (subcutaneous, 10 mg/kg HHC^MET (equivalents), 96 h) “<LLOQ”; (subcutaneous, 10 mg/kg HHC^MET (equivalents), 168 h) “<LLOQ”.

The record behind these values is US20230110994A1, “CONJUGATES UNDERGOING INTRAMOLECULAR REARRANGEMENTS” (Ascendis Pharma A/S, priority 2020, published 2023).
